We go through one molecule from patent publication US20090092614A1 (Biogen, published 2009).

In experiment [1] the target is T1, human IGF-1R(1-903)-Fc (human, UniProt P08069 31-933).
T1 construct: Made by Biogen Idec; also called hIGF-1R-Fc; IGF-1R-Fc
As to the kind of experiment: blocking ELISA, competitor 320 nM IGF-1. (In an ELISA, binding on a coated surface is turned into a signal by an enzyme label.)

Experiment [2] deals with T1, human IGF-1R(1-903)-Fc. As to the kind of experiment: blocking ELISA, competitor 640 nM IGF-2.
The target of the next experiment is T2, hIGF-1R-Fc mutant SD207 (human, UniProt P08069 31-933).
T2 construct: build as m36 with the substitution; also called G265Y
T2 sequence (P08069 other isoform, or with tags, fused parts or gaps mutant limits assumed): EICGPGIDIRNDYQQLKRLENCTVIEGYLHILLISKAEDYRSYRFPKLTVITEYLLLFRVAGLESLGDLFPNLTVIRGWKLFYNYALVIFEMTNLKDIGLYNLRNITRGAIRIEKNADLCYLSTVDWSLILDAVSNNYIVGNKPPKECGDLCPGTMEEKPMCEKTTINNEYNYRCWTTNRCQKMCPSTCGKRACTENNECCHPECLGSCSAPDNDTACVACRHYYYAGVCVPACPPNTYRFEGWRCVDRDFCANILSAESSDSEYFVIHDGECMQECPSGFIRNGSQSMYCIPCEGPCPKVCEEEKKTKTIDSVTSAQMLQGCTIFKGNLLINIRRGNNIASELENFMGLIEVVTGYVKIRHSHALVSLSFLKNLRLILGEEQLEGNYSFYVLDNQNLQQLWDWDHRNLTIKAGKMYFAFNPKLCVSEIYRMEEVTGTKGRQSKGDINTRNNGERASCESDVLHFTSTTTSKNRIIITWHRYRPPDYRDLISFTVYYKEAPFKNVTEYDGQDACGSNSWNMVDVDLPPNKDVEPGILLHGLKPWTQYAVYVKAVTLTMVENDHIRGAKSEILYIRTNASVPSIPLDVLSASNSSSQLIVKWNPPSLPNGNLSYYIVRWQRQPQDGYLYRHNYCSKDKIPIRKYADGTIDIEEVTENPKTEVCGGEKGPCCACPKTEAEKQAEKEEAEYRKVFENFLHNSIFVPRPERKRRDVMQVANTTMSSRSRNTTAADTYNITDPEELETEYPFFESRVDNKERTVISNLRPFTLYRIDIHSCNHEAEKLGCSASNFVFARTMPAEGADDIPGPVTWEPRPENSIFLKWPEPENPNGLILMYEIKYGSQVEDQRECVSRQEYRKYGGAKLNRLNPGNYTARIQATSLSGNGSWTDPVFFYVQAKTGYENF
Put plainly: KD grade of mutant hIGF-1R-Fc; S = binding to antibody was ablated by mutation.

For another experiment, the target named is T3, hIGF-1R-Fc mutant SD203 (human, UniProt P08069 31-933).
T3 construct: build as m36 with the substitution; also called N254A
T3 sequence (P08069 other isoform, or with tags, fused parts or gaps mutant limits assumed): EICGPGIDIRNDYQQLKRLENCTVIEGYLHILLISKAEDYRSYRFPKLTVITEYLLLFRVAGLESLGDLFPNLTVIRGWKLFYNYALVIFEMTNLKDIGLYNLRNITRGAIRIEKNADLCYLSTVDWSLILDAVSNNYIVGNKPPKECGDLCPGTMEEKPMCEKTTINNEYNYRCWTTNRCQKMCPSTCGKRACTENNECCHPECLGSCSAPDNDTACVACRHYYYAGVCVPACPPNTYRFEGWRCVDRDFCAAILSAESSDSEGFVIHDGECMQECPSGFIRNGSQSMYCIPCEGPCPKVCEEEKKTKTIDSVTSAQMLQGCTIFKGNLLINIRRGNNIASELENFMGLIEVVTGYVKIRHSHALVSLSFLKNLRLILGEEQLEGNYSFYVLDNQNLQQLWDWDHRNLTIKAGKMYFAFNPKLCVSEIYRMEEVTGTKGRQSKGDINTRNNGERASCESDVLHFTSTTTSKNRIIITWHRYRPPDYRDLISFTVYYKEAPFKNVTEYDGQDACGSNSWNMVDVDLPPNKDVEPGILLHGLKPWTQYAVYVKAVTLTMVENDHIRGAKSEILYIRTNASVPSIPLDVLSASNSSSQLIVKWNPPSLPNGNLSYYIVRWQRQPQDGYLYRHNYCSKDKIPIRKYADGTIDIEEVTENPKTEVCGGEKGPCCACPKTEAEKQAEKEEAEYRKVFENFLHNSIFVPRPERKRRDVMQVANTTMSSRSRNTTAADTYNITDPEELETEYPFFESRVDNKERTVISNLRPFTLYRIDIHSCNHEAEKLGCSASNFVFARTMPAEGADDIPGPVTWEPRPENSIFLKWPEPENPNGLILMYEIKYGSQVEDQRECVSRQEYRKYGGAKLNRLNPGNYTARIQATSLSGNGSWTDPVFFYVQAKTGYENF
The description is as above.

T1 sequence (P08069 31-933): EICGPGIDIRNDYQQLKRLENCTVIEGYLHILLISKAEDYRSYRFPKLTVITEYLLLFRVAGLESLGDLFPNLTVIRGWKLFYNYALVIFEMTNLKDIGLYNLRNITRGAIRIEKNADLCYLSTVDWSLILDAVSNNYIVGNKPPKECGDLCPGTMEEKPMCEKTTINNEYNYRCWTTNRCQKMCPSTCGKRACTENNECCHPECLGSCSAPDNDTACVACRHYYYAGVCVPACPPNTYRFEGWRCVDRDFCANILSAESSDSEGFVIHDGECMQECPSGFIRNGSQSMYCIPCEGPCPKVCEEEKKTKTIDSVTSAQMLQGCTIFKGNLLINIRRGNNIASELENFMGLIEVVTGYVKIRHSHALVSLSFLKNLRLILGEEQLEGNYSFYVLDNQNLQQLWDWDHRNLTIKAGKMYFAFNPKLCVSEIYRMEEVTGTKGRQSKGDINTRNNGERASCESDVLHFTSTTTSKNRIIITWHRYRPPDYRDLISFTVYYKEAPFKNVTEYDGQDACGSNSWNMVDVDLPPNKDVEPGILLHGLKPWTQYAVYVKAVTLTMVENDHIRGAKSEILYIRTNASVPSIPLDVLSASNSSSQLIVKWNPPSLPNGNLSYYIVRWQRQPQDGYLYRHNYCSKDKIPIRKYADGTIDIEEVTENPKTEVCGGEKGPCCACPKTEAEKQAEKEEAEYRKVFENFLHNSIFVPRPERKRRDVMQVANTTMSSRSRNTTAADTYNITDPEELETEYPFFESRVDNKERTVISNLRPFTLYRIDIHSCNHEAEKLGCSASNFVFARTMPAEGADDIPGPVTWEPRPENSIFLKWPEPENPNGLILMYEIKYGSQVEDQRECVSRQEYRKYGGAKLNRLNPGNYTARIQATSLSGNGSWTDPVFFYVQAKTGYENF

B1: P1E2 (chimeric antibody) (antibody, V domains shown)
VH: QVQLQQPGAELVKPGASVKLSCKASGYTFTSYWMHWVKQRPGQGLEWIGEINPTYGRSNYNEKFKSKATLTVDKSSSTAYMQLSSLTSEDSAVYYCARLVRLRYFDVWGAGTTVTVSS
VL: DIVMTQAAFSNPVTLGTSASISCRSSKSLLHSNGITYLYWYLQKPGQSPQLLIYQMSNLASGVPDRFSSSGSGTDFTLRISRVEAEDVGVYYCAQNLELPYTFGGGTKLEIK
Turning to B1, in the experiment with human IGF-1R(1-903)-Fc [1], the “% IGF-1 inhibition upon antibody saturation” value was 38%. In the experiment with human IGF-1R(1-903)-Fc [2], the “% IGF-2 inhibition upon antibody saturation” value is around 50%. The binding result in the experiment with hIGF-1R-Fc mutant SD207 and in the experiment with hIGF-1R-Fc mutant SD203 was “no binding” in each case.
